How the values were obtained:
myh9_human MYH9 [1] = molecular target: myh9_human MYH9 (UniProt P35579)
myh9_human MYH9 [2] = molecular target: myh9_human MYH9 (UniProt P35579); remark: listed apart in the source

myh9_human MYH9, sequence (P35579 whole entry): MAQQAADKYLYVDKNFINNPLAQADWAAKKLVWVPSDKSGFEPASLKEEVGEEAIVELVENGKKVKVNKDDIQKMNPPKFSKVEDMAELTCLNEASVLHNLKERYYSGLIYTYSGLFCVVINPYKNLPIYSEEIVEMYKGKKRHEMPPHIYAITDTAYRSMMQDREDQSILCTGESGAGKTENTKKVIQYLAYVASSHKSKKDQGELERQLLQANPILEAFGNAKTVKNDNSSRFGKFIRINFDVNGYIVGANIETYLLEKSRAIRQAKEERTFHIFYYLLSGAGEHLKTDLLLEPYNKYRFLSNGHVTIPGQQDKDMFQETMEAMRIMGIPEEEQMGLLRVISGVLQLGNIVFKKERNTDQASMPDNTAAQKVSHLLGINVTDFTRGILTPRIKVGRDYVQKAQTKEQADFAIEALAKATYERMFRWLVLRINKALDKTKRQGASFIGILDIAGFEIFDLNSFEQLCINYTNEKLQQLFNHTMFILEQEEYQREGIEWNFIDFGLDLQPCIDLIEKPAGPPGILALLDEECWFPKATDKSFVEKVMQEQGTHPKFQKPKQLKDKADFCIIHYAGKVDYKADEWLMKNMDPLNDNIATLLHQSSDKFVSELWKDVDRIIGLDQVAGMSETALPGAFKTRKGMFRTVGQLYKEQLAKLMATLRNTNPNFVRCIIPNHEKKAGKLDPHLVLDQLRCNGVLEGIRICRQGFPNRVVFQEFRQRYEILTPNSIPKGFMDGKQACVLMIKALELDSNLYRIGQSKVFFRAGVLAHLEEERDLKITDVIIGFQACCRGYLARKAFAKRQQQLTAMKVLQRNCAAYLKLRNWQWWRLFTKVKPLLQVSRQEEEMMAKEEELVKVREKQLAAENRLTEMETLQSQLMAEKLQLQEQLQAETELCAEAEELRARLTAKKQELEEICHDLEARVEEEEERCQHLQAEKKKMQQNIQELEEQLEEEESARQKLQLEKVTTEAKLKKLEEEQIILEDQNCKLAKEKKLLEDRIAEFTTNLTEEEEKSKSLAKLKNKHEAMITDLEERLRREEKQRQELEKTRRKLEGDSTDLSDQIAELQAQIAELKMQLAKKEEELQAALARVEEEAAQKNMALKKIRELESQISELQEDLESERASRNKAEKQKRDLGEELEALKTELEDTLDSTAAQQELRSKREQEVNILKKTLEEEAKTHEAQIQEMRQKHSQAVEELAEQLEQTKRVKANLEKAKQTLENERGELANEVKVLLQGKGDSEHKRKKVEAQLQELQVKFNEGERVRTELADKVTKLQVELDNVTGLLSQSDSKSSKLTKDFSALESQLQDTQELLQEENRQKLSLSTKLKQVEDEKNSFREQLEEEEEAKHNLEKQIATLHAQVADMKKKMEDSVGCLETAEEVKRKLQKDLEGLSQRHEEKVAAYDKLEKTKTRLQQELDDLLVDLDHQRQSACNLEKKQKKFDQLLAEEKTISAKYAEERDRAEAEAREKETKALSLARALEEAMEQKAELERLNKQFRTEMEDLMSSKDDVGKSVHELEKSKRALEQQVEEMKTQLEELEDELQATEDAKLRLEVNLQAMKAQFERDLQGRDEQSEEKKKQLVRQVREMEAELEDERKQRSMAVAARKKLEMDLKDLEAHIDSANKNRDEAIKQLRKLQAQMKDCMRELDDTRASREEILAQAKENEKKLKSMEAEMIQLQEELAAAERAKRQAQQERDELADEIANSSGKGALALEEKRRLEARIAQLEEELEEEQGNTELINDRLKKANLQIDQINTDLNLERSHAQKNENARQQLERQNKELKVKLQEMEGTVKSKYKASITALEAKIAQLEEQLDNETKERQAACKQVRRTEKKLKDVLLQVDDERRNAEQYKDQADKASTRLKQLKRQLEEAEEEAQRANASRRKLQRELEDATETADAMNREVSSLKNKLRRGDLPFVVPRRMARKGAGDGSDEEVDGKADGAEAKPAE
Protein S100-A4 (Homo sapiens), P26447 C3S;F45W;C81S;C86S, sequence (P26447 whole entry C3S/F45W/C81S/C86S): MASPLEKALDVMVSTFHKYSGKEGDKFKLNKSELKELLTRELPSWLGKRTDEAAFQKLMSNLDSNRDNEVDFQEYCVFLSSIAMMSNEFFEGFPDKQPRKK

Substance	effect of a mutation on the interaction (myh9_human MYH9 [1])	effect of a mutation on the interaction (myh9_human MYH9 [2])
Protein S100-A4 (Homo sapiens), P26447 C3S;F45W;C81S;C86S	decreasing interaction strength	
Protein S100-A4 (Homo sapiens), P26447 F45W		with no effect
